Assay results from patent US20140271675A1 (Eli Lilly, published 2014).

What was measured:
[1] = molecular target: hVEGFR1-Fc (R&D 321-fl 050/cf) (human) (UniProt P17948); experiment: competition ELISA, coated hVEGFR1-Fc, competitor biotin-hVEGFA-165 2 nM; control Ron antibody 0.0617 µg/ml
[2] = molecular target: hVEGFR1-Fc (R&D 321-fl 050/cf) (human) (UniProt P17948); experiment: competition ELISA, coated hVEGFR1-Fc, competitor biotin-hPLGF1 2 nM; control Ron antibody 0.206 µg/ml
[3] = molecular target: hVEGFR1-Fc (R&D 321-fl 050/cf) (human) (UniProt P17948); experiment: competition ELISA, coated hVEGFR1-Fc, competitor biotin-hVEGFA-165 2 nM; control Ron antibody 0.0023 µg/ml
[4] = molecular target: hVEGFR1-Fc (R&D 321-fl 050/cf) (human) (UniProt P17948); experiment: competition ELISA, coated hVEGFR1-Fc, competitor biotin-hVEGFA-165 2 nM; control Ron antibody 0.023 µg/ml
[5] = molecular target: hVEGFR1-Fc (R&D 321-fl 050/cf) (human) (UniProt P17948); experiment: competition ELISA, coated hVEGFR1-Fc, competitor biotin-hPLGF1 4 nM; control Ron antibody 0.0206 µg/ml
[6] = molecular target: hVEGFR1-Fc (R&D 321-fl 050/cf) (human) (UniProt P17948); experiment: competition ELISA, coated hVEGFR1-Fc, competitor biotin-hPLGF1 2 nM; control Ron antibody 16.667 µg/ml
[7] = molecular target: hVEGFR1-Fc (R&D 321-fl 050/cf) (human) (UniProt P17948); experiment: competition ELISA, coated hVEGFR1-Fc, competitor biotin-hVEGFA-165 2 nM; control Ron antibody 50.000 µg/ml
[8] = molecular target: hVEGFR1-Fc (R&D 321-fl 050/cf) (human) (UniProt P17948); experiment: competition ELISA, coated hVEGFR1-Fc, competitor biotin-hPLGF1 4 nM; control Ron antibody 0.0023 µg/ml

hVEGFR1-Fc (R&D 321-fl 050/cf) (human), sequence (P17948 27-758): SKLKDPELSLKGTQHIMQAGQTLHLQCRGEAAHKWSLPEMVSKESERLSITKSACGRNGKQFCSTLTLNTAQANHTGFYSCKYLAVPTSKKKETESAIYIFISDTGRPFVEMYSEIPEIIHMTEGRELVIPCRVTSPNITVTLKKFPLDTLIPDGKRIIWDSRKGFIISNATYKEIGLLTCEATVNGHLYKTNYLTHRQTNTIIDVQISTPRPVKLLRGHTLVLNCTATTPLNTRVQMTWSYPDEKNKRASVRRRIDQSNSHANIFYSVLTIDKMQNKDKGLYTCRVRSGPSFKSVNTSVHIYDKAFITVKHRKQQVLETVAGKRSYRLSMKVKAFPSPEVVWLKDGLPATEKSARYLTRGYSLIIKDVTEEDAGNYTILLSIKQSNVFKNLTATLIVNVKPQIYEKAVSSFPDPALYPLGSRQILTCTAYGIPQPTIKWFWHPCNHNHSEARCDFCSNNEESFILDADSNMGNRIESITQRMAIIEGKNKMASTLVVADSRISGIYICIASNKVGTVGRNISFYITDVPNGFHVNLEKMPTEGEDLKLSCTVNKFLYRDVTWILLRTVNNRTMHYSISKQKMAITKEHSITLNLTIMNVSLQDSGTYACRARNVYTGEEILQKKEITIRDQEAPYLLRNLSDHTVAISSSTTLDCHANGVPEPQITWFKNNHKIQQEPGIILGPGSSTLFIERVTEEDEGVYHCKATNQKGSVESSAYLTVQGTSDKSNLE

OD560 (bound biotinylated VEGF-A) [1]: 1.51 OD | OD560 (bound biotinylated PlGF) [2]: 0.315 OD | OD560 (bound biotinylated VEGF-A) [3]: 1.54 OD | OD560 (bound biotinylated VEGF-A) [4]: 0.506 OD | OD560 (bound biotinylated PlGF) [5]: 0.389 OD | OD560 (bound biotinylated PlGF) [6]: 0.304 OD | OD560 (bound biotinylated VEGF-A) [7]: 0.515 OD | OD560 (bound biotinylated PlGF) [8]: 0.359 OD
Substance: control Ron antibody (R&D MAB691)
